The chains are these.
B1: C5A (XPA23) VH P53G (antibody, V domains shown)
VH: EVQLLESGGGLVQPGGSLRLSCAASGFTFSKYFMFWVRQAPGKGLEWVSVISGSGGMTRYADSVKGRFTISRDNSKNTLYLQMNSLRAEDTAVYYCARVGYGGNSDYWGQGTLVTVSS
VL: DIQMTQSPSSVSASVGDRLTIICRASQDINRWLAWYQQTPGNAPKLLIHSATSLQSGVPSRFSGSGSGTDFTLTINSLQPEDFATYYCQQADSFPLTFGGGTKVEIK
B2: C5A (XPA23) VH P53I (antibody, V domains shown)
VH: B1 VH with G53I
VL: B1 VL
B3: C5A (XPA23) VH P53W (antibody, V domains shown)
VH: B1 VH with G53W
VL: B1 VL
B4: C5A (XPA23) VH P53F (antibody, V domains shown)
VH: B1 VH with G53F
VL: B1 VL
B5: C5A (XPA23) VH T58V (antibody, V domains shown)
VH: B1 VH with G53P, T58V
VL: B1 VL
B6: C5A (XPA23) VH S54G (antibody, V domains shown)
VH: B1 VH with G53P, S54G
VL: B1 VL
B7: C5A (XPA23) VH T58A (antibody, V domains shown)
VH: B1 VH with G53P, T58A
VL: B1 VL
B8: C5A (XPA23) VH S54I (antibody, V domains shown)
VH: B1 VH with G53P, S54I
VL: B1 VL
B9: C5A (XPA23) VH P53V (antibody, V domains shown)
VH: B1 VH with G53V
VL: B1 VL
B10: C5A (XPA23) VH G56L (antibody, V domains shown)
VH: B1 VH with G53P, G56L
VL: B1 VL
B11: C5A (XPA23) VH M57I (antibody, V domains shown)
VH: B1 VH with G53P, M57I
VL: B1 VL
B12: C5A (XPA23) VH G56P (antibody, V domains shown)
VH: B1 VH with G53P, G56P
VL: B1 VL
B13: C5A (XPA23) VH M57F (antibody, V domains shown)
VH: B1 VH with G53P, M57F
VL: B1 VL
B14: C5A (XPA23) VH S54A (antibody, V domains shown)
VH: B1 VH with G53P, S54A
VL: B1 VL
B15: C5A (XPA23) VH S54P (antibody, V domains shown)
VH: B1 VH with G53P, S54P
VL: B1 VL
B16: C5A (XPA23) VH M57A (antibody, V domains shown)
VH: B1 VH with G53P, M57A
VL: B1 VL
B17: C5A (XPA23) VH G56A (antibody, V domains shown)
VH: B1 VH with G53P, G56A
VL: B1 VL
B18: C5A (XPA23) VH T58L (antibody, V domains shown)
VH: B1 VH with G53P, T58L
VL: B1 VL
B19: C5A (XPA23) VH M57V (antibody, V domains shown)
VH: B1 VH with G53P, M57V
VL: B1 VL
B20: C5A (XPA23) VH T58I (antibody, V domains shown)
VH: B1 VH with G53P, T58I
VL: B1 VL
B21: C5A (XPA23) VH G55I (antibody, V domains shown)
VH: B1 VH with G53P, G55I
VL: B1 VL
B22: C5A (XPA23) VH P53A (antibody, V domains shown)
VH: B1 VH with G53A
VL: B1 VL
B23: C5A (XPA23) VH S54W (antibody, V domains shown)
VH: B1 VH with G53P, S54W
VL: B1 VL
B24: C5A (XPA23) VH M57L (antibody, V domains shown)
VH: B1 VH with G53P, M57L
VL: B1 VL
B25: C5A (XPA23) VH G55L (antibody, V domains shown)
VH: B1 VH with G53P, G55L
VL: B1 VL
B26: C5A (XPA23) VH G56I (antibody, V domains shown)
VH: B1 VH with G53P, G56I
VL: B1 VL
B27: C5A (XPA23) VH S54L (antibody, V domains shown)
VH: B1 VH with G53P, S54L
VL: B1 VL
B28: C5A (XPA23) VH S54V (antibody, V domains shown)
VH: B1 VH with G53P, S54V
VL: B1 VL
B29: C5A (XPA23) VH G56W (antibody, V domains shown)
VH: B1 VH with G53P, G56W
VL: B1 VL
B30: C5A (XPA23) VH S54F (antibody, V domains shown)
VH: B1 VH with G53P, S54F
VL: B1 VL
B31: C5A (XPA23) VH T58G (antibody, V domains shown)
VH: B1 VH with G53P, T58G
VL: B1 VL
B32: C5A (XPA23) VH P53L (antibody, V domains shown)
VH: B1 VH with G53L
VL: B1 VL
B33: C5A (XPA23) VH T58W (antibody, V domains shown)
VH: B1 VH with G53P, T58W
VL: B1 VL
B34: C5A (XPA23) VH G56F (antibody, V domains shown)
VH: B1 VH with G53P, G56F
VL: B1 VL
B35: C5A (XPA23) VH T58F (antibody, V domains shown)
VH: B1 VH with G53P, T58F
VL: B1 VL

Changes are numbered by the printed parent chain. Names and notes keep the numbering of the source.

One assay addresses binding partner (antigen) of C5A (XPA23). Kind of assay: Biacore, K-off, fold vs original. Background: SPR reads the build-up and loss of mass on a sensor chip optically.
Turning to B1, the fold difference in affinity vs original came out at 0.02 fold.
B2: the fold difference in affinity vs original is 0.08 fold.
On the same count and under the same terms, next, B3: 0.05 fold; B4: 0.05 fold.
For the molecule B5, the fold difference in affinity vs original worked out at 0.99 fold.
Consider B6, for which the fold difference in affinity vs original stood at 1.43 fold.
On to B7, for which the fold difference in affinity vs original is 0.14 fold.
For B8, the fold difference in affinity vs original stood at 0.86 fold.
On the same count and under the same terms, next, B9: 1.1 fold.
In the case of B10, the fold difference in affinity vs original worked out at 1.41 fold.
B11: the fold difference in affinity vs original was found to be 0.03 fold.
Consider B12, for which the fold difference in affinity vs original stood at 0.85 fold.
As for B13, the fold difference in affinity vs original turned out to be 1.03 fold.
Same read-out and setting: next, B14: 1 fold.
Still for that read-out and setting: as for B15, the figure is 0.06 fold; as for B16, 0.03 fold; as for B17, 1.21 fold.
B18: the fold difference in affinity vs original is 0.95 fold.
For B19, the fold difference in affinity vs original was determined as 0.03 fold.
Same read-out and setting: next, B20: 0.95 fold.
The same measure, in the same setting: as for B21, the figure is 0.86 fold; as for B22, 0.05 fold; as for B23, 1.07 fold.
In the case of B24, the fold difference in affinity vs original was found to be 0.06 fold.
Consider B25, for which the fold difference in affinity vs original amounted to 0.08 fold.
As to B26, the fold difference in affinity vs original came to 1.71 fold.
On the same count and under the same terms, as for B27, the figure is 0.91 fold; as for B28, 1 fold; as for B29, 1.51 fold.
The same measure, in the same setting: as for B30, the figure is 0.87 fold.
Same read-out and setting: next, B31: 0.95 fold; B32: 0.04 fold.
For the molecule B33, the fold difference in affinity vs original came to 0.93 fold.
Consider B34, for which the fold difference in affinity vs original stood at 1.41 fold.
Turning to B35, the fold difference in affinity vs original came to 1.04 fold.

The next assay concerns the target binding partner of C5A (XPA23). The experiment in a line: Biacore.
Consider B1, for which the fold difference in affinity vs original came to 0.02 fold.
With B2, the fold difference in affinity vs original is 0.08 fold.
As for B3, the fold affinity vs original was 0.05 fold.
Turning to B4, the fold affinity vs original came to 0.05 fold.
Take B5: the fold difference in affinity vs original amounted to 0.99 fold.
With B6, the fold difference in affinity vs original was determined as 1.43 fold.
Regarding B7, the fold difference in affinity vs original is 0.14 fold.
For the molecule B8, the fold difference in affinity vs original was 0.86 fold.
Regarding B9, the fold difference in affinity vs original is 1.1 fold.
On to B10, for which the fold difference in affinity vs original was found to be 1.41 fold.
For the molecule B11, the fold difference in affinity vs original is 0.03 fold.
In the case of B12, the fold difference in affinity vs original stood at 0.85 fold.
For B13, the fold affinity vs original stood at 1.03 fold.
B14: the fold difference in affinity vs original was determined as 1 fold.
The same measure, in the same setting: as for B15, the figure is 0.06 fold.
As to B16, the fold difference in affinity vs original was 0.03 fold.
The same measure, in the same setting: next, B17: 1.21 fold; B18: 0.95 fold; B19: 0.03 fold.
The same measure, in the same setting: next, B20: 0.95 fold; B21: 0.86 fold.
Take B22: the fold difference in affinity vs original is 0.05 fold.
With B23, the fold affinity vs original was found to be 1.07 fold.
Turning to B24, the fold difference in affinity vs original is 0.06 fold.
As for B25, the fold difference in affinity vs original stood at 0.08 fold.
In the case of B26, the fold difference in affinity vs original came out at 1.71 fold.
The same measure, in the same setting: next, B27: 0.91 fold; B28: 1 fold.
Turning to B29, the fold affinity vs original stood at 1.51 fold.
On to B30, for which the fold affinity vs original was determined as 0.87 fold.
Turning to B31, the fold difference in affinity vs original was 0.95 fold.
For B32, the fold difference in affinity vs original came to 0.04 fold.
Take B33: the fold affinity vs original amounted to 0.93 fold.
B34: the fold affinity vs original turned out to be 1.41 fold.
In the case of B35, the fold affinity vs original amounted to 1.04 fold.
